Results published in patent publication US20140072613A1, “Compositions and Methods for Treating Cutaneous Scarring” (priority 2012, published 2014).

How the values were obtained:
Assay in all cases: cell-based or functional assay
ALK4(h) (human) = molecular target: T1, ALK4(h) (human) (UniProt P36896)
T1 sequence (looked up): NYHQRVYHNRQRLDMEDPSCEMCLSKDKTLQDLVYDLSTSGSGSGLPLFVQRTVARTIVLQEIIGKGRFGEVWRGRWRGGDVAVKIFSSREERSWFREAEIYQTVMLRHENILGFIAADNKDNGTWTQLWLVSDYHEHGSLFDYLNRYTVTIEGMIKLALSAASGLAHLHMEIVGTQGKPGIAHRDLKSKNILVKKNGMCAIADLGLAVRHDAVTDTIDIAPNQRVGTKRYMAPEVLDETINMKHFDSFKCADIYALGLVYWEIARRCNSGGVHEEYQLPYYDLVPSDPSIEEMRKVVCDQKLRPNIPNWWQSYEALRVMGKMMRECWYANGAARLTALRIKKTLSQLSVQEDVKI

Abl(M351T)(h) (human) = Abl(M351T)(h) (human) (UniProt P00519)
Chain of Abl(M351T)(h) (human) (P00519 27-1130 M351T limits assumed): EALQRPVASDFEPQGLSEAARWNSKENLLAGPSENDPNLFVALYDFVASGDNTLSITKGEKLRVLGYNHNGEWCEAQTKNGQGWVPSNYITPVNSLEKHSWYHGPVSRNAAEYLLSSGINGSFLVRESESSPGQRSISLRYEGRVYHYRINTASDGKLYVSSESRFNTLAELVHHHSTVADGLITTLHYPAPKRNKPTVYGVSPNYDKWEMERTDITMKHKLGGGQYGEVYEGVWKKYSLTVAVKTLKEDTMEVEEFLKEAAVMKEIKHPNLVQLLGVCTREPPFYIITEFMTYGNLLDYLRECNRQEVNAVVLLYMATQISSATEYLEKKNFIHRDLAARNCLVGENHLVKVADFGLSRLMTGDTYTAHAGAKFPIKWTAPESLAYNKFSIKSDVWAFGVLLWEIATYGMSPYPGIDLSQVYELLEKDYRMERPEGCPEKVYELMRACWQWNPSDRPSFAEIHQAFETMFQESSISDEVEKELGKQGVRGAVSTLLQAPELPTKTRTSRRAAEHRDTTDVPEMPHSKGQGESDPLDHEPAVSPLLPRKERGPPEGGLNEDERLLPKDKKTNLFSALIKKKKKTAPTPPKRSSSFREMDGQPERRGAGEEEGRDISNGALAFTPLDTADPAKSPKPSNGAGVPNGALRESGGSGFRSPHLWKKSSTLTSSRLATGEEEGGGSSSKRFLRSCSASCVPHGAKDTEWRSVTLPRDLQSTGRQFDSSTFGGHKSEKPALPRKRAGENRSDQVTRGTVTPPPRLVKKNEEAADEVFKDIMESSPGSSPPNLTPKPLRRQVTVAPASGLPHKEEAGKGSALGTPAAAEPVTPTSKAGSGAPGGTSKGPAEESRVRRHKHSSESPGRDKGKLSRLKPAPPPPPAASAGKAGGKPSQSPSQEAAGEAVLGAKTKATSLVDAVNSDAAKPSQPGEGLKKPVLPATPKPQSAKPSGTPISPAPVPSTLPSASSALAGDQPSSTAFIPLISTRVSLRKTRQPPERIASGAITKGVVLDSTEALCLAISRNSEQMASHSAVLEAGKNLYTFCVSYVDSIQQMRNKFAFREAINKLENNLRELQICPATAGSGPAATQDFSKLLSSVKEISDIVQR

Aurora-A(h) (human) = molecular target: T2, Aurora-A(h) (human) (UniProt O14965)
T2 sequence (looked up): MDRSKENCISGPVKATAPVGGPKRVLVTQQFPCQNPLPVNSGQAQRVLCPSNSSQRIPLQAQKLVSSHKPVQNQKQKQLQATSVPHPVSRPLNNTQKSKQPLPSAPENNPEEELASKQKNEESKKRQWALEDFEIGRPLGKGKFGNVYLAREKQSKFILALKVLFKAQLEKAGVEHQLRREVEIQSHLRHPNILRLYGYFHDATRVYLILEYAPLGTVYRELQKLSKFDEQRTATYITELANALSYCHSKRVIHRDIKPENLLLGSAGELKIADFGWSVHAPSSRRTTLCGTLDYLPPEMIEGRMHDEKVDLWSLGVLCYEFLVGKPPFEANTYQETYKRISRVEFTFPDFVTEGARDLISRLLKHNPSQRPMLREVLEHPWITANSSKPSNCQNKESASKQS

Aurora-B(h) (human) = Aurora-B(h) (human) (UniProt Q96GD4)
Chain of Aurora-B(h) (human) (Q96GD4 whole entry): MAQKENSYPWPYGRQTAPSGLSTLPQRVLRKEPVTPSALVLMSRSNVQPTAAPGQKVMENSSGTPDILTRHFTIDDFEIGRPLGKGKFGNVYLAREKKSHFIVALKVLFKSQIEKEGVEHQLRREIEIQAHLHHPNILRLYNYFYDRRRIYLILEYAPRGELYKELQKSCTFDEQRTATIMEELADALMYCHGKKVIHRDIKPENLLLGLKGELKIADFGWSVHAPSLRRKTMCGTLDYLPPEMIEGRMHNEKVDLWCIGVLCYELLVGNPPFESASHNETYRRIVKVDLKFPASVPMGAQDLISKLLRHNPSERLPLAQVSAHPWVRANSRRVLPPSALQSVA

BRK(h) (human) = BRK(h) (human) (UniProt Q13882)
DAPK1(h) (human) = DAPK1(h) (human) (UniProt P53355)
Chain of DAPK1(h) (human) (P53355 1-363 limits assumed): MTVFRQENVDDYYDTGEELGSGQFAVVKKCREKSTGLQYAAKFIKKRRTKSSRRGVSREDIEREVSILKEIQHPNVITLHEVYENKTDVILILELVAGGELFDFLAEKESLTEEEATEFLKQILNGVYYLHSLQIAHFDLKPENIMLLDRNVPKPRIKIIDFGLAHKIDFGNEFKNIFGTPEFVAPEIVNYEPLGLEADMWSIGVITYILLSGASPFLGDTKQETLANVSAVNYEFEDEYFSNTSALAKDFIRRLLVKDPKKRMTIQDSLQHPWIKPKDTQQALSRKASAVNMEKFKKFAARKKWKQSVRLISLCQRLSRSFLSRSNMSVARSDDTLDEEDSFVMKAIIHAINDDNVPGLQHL

EphA5(h) (human) = molecular target: T3, EphA5(h) (human) (UniProt P54756)
T3 sequence (looked up): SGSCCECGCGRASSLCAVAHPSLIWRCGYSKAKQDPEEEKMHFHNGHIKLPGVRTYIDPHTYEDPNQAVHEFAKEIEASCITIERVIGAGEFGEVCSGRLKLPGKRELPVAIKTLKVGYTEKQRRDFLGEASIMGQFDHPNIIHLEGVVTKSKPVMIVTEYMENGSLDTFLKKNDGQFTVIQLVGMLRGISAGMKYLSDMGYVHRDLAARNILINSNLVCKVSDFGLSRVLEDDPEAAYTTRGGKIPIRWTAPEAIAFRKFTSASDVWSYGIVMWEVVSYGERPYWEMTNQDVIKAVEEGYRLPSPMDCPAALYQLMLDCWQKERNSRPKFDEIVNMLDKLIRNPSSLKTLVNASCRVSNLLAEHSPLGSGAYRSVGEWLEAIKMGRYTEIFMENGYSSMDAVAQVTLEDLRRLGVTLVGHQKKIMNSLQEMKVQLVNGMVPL

EphB2(h) (human) = EphB2(h) (human) (UniProt P29323)
Chain of EphB2(h) (human) (P29323 565-986 limits assumed): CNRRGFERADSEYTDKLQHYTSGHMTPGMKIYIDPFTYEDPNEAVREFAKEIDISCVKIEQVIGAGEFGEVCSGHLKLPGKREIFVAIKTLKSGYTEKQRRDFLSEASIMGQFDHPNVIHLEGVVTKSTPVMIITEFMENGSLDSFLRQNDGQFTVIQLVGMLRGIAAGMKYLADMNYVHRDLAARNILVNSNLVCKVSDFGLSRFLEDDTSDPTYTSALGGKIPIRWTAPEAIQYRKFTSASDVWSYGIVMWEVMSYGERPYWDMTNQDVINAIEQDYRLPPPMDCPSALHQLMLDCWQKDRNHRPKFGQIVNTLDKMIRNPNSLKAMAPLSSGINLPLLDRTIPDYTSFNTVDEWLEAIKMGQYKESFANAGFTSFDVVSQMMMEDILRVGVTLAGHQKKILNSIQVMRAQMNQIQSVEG

HIPK1(h) (human) = HIPK1(h) (human) (UniProt Q86Z02)
Chain of HIPK1(h) (human) (Q86Z02 158-555 limits assumed): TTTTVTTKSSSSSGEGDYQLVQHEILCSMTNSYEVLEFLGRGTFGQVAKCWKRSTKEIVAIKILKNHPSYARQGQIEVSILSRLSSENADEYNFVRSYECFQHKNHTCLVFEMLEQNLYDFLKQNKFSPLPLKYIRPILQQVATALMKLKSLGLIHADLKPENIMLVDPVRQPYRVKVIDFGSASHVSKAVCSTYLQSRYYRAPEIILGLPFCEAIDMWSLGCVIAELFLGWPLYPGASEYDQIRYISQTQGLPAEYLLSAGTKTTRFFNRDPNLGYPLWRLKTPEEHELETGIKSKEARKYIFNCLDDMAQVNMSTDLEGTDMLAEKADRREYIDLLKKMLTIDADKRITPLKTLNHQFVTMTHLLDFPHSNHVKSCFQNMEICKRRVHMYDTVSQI

MAPKAP-K3(h) (human) = MAPKAP-K3(h) (human) (UniProt Q16644)
Chain of MAPKAP-K3(h) (human) (Q16644 whole entry): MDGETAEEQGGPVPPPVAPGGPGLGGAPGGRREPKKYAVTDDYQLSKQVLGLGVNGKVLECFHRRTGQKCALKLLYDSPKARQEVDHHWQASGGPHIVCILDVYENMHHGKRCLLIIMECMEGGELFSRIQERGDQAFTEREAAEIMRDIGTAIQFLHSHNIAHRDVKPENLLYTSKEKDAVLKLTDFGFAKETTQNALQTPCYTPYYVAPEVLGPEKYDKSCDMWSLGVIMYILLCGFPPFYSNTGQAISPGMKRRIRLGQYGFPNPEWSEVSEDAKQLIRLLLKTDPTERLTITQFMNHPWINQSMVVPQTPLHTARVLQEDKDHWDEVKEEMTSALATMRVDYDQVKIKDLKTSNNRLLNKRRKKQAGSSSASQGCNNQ

MSSK1(h) (human) = MSSK1(h) (human) (UniProt Q9UPE1)
Chain of MSSK1(h) (human) (Q9UPE1 whole entry): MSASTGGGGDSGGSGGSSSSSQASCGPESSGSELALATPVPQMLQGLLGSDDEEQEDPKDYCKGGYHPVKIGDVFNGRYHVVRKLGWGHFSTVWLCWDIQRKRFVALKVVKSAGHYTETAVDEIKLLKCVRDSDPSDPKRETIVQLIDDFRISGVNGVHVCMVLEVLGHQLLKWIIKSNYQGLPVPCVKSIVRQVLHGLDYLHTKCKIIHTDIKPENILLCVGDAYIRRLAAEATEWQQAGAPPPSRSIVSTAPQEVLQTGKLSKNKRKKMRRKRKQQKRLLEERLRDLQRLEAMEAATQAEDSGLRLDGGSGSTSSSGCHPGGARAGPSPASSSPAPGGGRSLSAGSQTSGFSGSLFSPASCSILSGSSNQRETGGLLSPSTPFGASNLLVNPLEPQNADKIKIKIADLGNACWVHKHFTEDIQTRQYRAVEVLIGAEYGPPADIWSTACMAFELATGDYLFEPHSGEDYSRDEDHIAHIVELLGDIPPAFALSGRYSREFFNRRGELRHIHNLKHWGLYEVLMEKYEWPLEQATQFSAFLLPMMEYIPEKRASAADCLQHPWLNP

Met(M1268T)(h) (human) = Met(M1268T)(h) (human) (UniProt P08581)
NLK(h) (human) = molecular target: T4, NLK(h) (human) (UniProt Q9UBE8)
T4 sequence (looked up): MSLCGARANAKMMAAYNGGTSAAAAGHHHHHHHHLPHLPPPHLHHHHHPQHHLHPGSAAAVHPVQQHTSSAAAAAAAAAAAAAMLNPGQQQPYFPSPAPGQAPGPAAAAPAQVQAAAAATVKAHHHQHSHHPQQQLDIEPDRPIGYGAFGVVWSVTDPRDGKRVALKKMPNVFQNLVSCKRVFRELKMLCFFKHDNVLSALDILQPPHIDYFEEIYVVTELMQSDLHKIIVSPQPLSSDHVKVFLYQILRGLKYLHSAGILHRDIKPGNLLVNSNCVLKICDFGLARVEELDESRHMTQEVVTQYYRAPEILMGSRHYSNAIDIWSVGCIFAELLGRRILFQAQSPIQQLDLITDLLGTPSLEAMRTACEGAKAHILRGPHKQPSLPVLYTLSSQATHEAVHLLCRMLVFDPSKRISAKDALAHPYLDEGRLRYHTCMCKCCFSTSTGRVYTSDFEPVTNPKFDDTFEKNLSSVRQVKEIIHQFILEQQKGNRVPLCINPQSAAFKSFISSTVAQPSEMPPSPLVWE

Pim-1(h) (human) = Pim-1(h) (human) (UniProt P11309)
Chain of Pim-1(h) (human) (P11309 whole entry): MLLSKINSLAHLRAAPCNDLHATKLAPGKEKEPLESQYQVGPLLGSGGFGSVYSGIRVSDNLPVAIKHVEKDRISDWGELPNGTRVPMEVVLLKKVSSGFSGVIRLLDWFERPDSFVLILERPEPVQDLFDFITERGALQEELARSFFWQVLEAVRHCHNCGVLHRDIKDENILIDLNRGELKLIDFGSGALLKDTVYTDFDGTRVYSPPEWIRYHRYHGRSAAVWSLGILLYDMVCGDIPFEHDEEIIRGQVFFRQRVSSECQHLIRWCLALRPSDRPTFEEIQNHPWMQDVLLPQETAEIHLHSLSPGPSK

PrKX(h) (human) = molecular target: T5, PrKX(h) (human) (UniProt P51817)
T5 sequence (looked up): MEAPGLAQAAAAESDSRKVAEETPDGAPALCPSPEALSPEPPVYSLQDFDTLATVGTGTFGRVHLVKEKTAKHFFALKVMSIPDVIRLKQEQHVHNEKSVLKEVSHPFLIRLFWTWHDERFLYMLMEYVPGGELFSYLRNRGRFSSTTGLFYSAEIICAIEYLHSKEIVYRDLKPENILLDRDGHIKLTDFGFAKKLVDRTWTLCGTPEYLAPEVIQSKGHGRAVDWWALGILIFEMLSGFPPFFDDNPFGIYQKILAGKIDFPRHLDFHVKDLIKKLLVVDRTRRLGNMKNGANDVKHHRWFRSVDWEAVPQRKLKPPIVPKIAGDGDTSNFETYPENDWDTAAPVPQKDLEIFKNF

STK33(h) (human) = STK33(h) (human) (UniProt Q9BYT3)
TLK2(h) (human) = TLK2(h) (human) (UniProt Q86UE8)
Chain of TLK2(h) (human) (Q86UE8 whole entry): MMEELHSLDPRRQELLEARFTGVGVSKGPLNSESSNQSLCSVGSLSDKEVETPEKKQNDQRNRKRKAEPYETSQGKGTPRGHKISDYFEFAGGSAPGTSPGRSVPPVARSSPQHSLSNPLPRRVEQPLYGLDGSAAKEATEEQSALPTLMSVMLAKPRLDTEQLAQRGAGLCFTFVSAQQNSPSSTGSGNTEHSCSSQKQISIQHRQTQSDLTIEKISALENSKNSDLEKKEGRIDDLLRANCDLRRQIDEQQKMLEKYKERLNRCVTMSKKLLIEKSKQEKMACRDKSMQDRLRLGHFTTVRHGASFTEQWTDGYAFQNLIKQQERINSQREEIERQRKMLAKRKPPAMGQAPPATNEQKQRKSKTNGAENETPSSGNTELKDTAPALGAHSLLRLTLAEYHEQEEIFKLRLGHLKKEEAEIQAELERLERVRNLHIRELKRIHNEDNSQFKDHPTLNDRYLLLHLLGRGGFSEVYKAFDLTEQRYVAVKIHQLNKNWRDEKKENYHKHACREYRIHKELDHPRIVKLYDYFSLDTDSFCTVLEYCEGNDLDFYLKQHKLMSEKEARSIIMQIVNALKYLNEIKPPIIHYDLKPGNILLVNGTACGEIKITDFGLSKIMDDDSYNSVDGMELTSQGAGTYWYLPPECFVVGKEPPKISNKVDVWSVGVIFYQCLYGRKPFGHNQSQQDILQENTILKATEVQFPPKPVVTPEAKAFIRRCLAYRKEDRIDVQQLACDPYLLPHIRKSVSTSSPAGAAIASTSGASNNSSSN

% activity, 100 µM (ALK4(h) (human)): 81%
% activity, 100 µM (Abl(M351T)(h) (human)): 61%
% activity, 100 µM (Aurora-A(h) (human)): 110%
% activity, 100 µM (Aurora-B(h) (human)): 5%
% activity, 100 µM (BRK(h) (human)): 41%
% activity, 100 µM (DAPK1(h) (human)): 0%
% activity, 100 µM (EphA5(h) (human)): 42%
% activity, 100 µM (EphB2(h) (human)): 70%
% activity, 100 µM (HIPK1(h) (human)): 47%
% activity, 100 µM (MAPKAP-K3(h) (human)): 9%
inhibition of kinase activity at 100 µM (MAPKAP-K3(h) (human)): > 65%
% activity, 100 µM (MSSK1(h) (human)): 22%
% activity, 100 µM (Met(M1268T)(h) (human)): 239%
% activity, 100 µM (NLK(h) (human)): 19%
% activity, 100 µM (Pim-1(h) (human)): 0%
% activity, 100 µM (PrKX(h) (human)): 57%
% activity, 100 µM (STK33(h) (human)): 16%
% activity, 100 µM (TLK2(h) (human)): 133%
Substance: MMI-0500 (peptide)
